Where two headings read alike, the source gives them in different places.
How the values were obtained:
GM CBM21 = details: cited from earlier work
Source text: The same two sugar-binding sites have been identified in the crystal structures of Rhizopus oryzae CBM21[13],[14]; site II is the primary binding site, while site I has been hypothesized to contribute to the binding of long-chain soluble polysaccharides and insoluble starch or to the relaxation and unwinding of helical amylose[15],[16].

PP1 (Homo sapiens) [1] = biological target: PP1 (Homo sapiens) (UniProt P62136); details: cited from earlier work
Chain of PP1 (Homo sapiens) (P62136 2-330): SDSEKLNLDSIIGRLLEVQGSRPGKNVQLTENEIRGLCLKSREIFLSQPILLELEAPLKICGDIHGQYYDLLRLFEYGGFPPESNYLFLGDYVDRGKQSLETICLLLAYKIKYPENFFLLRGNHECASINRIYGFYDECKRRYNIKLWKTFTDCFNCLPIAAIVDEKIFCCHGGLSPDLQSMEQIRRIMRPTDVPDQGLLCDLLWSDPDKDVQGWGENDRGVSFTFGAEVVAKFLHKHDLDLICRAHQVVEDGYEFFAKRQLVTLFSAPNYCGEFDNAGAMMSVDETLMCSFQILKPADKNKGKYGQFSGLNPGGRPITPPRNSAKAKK

PP1 (Homo sapiens) [2] = biological target: PP1 (Homo sapiens) (UniProt P62136); details: cited from earlier work; remark: listed apart in the source
[3] = biological target: T1, PP1 7-330 (Serine/threonine-protein phosphatase PP1-alpha catalytic subunit, residues 7-330) (human, UniProt P62136 7-330); assay: grating-coupled interferometry (GCI); PTG 70-264 immobilised by amine coupling on a 4PCH WAVE chip at 1000 pg/mm2; PP1 7-330 injected, 1:2 dilution series from 400 nM; 10 mM Hepes pH 7.2, 150 mM NaCl, 0.005% Tween 20; 25 °C; 30 µl/min; mass transport binding model; details: both partners purified
T1 construct: Serine/threonine-protein phosphatase PP1-alpha catalytic subunit, human, UniProt P62136, residues 7-330; source: E. coli BL21 (DE3) pGro7, purified (Ni-NTA, SEC)
T1 sequence (P62136 7-330): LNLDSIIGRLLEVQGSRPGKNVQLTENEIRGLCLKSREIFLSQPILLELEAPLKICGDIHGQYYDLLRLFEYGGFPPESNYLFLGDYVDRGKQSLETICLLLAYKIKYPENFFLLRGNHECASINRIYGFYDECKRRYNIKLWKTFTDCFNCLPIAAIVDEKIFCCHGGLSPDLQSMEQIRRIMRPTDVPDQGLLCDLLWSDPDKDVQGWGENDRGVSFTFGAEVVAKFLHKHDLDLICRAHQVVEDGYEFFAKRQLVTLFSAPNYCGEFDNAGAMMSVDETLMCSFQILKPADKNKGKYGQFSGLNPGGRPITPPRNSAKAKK

6xHis-tagged PP1 7-330 = biological target: T2, 6xHis-tagged PP1 7-330 (human, UniProt P62136 7-330); assay: grating-coupled interferometry (GCI); 6xHis-tagged PP1 7-330 captured on 4PCP-NTA WAVE chips (3600 pg/mm2 for PTG 81-107, 1600 pg/mm2 for PTG 81-132); peptides injected, 1:2 dilution series from 300 nM; 10 mM Hepes pH 7.2, 150 mM NaCl, 0.005% Tween 20, 0.2 mg/ml BSA; 25 °C; 100 µl/min; mass transport binding model; details: both partners purified
T2 construct: Serine/threonine-protein phosphatase PP1-alpha catalytic subunit, human, UniProt P62136, residues 7-330; Captured by its His tag on 4PCP-NTA chips; a TEV site lies between tag and protein; source: E. coli BL21 (DE3) pGro7, purified (Ni-NTA, SEC); not shown: His6, N-terminal, kept
T2 sequence (P62136 7-330): as above

6xHis-tagged PP1^7-330 = 6xHis-tagged PP1^7-330 (UniProt P62136 7-330, Mn2+ in active site (expressed and purified with MnCl2); N-terminal 6xHis tag used for capture, left out. Alpha isoform taken from the authors' PDB entries 7QFB/7QM2 and the residue numbering); assay: grating-coupled interferometry (GCI); 6xHis-tagged PP1 7-330 reversibly captured on 4PCP-NTA WAVE chip (3600 or 1600 pg/mm^2); peptides injected, 1:2 dilution series from 300 nM; 25 °C; 10 mM Hepes pH 7.2, 150 mM NaCl, 0.005% Tween 20, 0.2 mg/ml BSA; mass transport binding model; details: both partners purified
Chain of 6xHis-tagged PP1^7-330 (P62136 7-330): as above

PP1 7-330 = biological target: T3, PP1 7-330 (Homo sapiens, UniProt P62136); assay: GCI binding of immobilized PTG constructs to PP1 as analyte; details: GCI titrations, compared with PTG peptides 81–107 and 81–132
T3 construct: reversibly capturing 6xHis-tagged PP1^7-330; host or cells: E. coli BL21 (DE3) pGro7
T3 sequence (P62136 7-330): as above
Experimental: Grating-coupled interferometry (GCI) experiments were performed using the Creoptix WAVE system, a new generation instrument for the high-sensitivity kinetics and affinity analysis of label-free molecular interactions based on the waveguide interferometry technology. Waveguide interferometry exceeds the sensitivity levels of Surface Plasmon Resonance (SPR). […] GCI allows getting high resolution even at very low signal levels with low noise without artificial data averaging and reliable kinetics below 1 pg/mm^2. By the lower immobilization levels that are required, it avoids mass transport limitations. It covers the broadest kinetic range with the capability of analyzing of the ultra-fast transition times (i.e. 150 ms). It allows the reliable determination of off-rates of 5 s^–1 and even faster, enabling off-rate screening of weakly binding analytes. GCI can be applied to a wide range of pharmacological targets, with improved results on very low molecular weight compounds, to the dimensions of metal ions[56].
WAVE chips are composed of four channels or cells. Borate buffer (100 mM sodium borate pH 9.0, 1 M NaCl) was used for chip conditioning. To evaluate the kinetics of the PTG interaction with β-cyclodextrin and PP1, PTG^70-264 (20 µg/ml in buffer acetate pH 5.0) was immobilized on 4PCH WAVE chips (quasiplanar polycarboxylate surface; Creoptix) by standard amine coupling according to the manufacturer’s instructions at a density of 1800 pg/mm^2 and 1000 pg/mm^2 for β-cyclodextrin and PP1^7-330, respectively (Supplementary Figs. 8, 9). Regeneration-free injections of a 1:3 dilution series from 500 µM for β-cyclodextrin in running buffer (10 mM Hepes pH 7.2, 150 mM NaCl, 0.005% Tween 20) were performed at 25 °C, using a flow rate of 100 μl/min. Similarly, regeneration-free injections of a 1:2 dilution series from 400 nM for PP1^7-330 in the same running buffer were performed at 25 °C, using a flow rate of 30 μl/min. […]
Supplementary Figure 3: Quantitative binding kinetics by GCI. […]

For `OC[C@H]1O[C@@H]2O[C@H]3[C@H](O)[C@@H](O)[C@@H](O[C@H]4[C@H](O)[C@@H](O)[C@@H](O[C@H]5[C@H](O)[C@@H](O)[C@@H](O[C@H]6[C@H](O)[C@@H](O)[C@@H](O[C@H]7[C@H](O)[C@@H](O)[C@@H](O[C@H]1[C@H](O)[C@H]2O)O[C@@H]7CO)O[C@@H]6CO)O[C@@H]5CO)O[C@@H]4CO)O[C@@H]3CO` [α-cyclodextrin], the Kd (GM CBM21) is given as 27600 nM.

In the case of GM 64-105 (from UniProt Q00756), the Kd (PP1 (Homo sapiens) [1]) is given as 114 nM.

In the case of GM 64-237 (from UniProt Q00756), the Kd (PP1 (Homo sapiens) [2]) is listed as 21 nM.

B1: PTG 70-264 (Protein phosphatase 1 regulatory subunit 3C, residues 70-264) (domain or fragment, human, UniProt Q9UQK1 70-264, looked up)
chain: SQNDWKCSHNQAKKRVVFADSKGLSLTAIHVFSDLPEEPAWDLQFDLLDLNDISSALKHHEEKNLILDFPQPSTDYLSFRSHFQKNFVCLENCSLQERTVTGTVKVKNVSFEKKVQIRITFDSWKNYTDVDCVYMKNVYGGTDSDTFSFAIDLPPVIPTEQKIEFCISYHANGQVFWDNNDGQNYRIVHVQWKPD
notes: GST removed on the column with 3C protease; also called PPP1R3C; protein targeting to glycogen; source: E. coli, co-expressed with GroEL/ES (pGro7), purified (glutathione agarose, SEC); for the crystal co-expressed with PP1 7-300; not shown: GST, N-terminal, cleaved
For B1, the Kd [3] was 87 nM, the koff [3] was 0.0043 s⁻¹ and the kon [3] was 50000 M⁻¹ s⁻¹.

B2: PTG peptide 81-107 (peptide, UniProt Q9UQK1 81-107, looked up)
peptide: AKKRVVFADSKGLSLTAIHVFSDLPEE
notes: also called peptide 1; source: synthetic peptide, bought: ProteoGenix SAS
Molecule B2 has a Kd (6xHis-tagged PP1 7-330) of 14.1 nM, a koff (6xHis-tagged PP1 7-330) of 0.00295 s⁻¹ and a kon (6xHis-tagged PP1 7-330) of 208000 M⁻¹ s⁻¹.

B3: PTG peptide 81-132 (peptide, UniProt Q9UQK1 81-132, looked up)
peptide: AKKRVVFADSKGLSLTAIHVFSDLPEEPAWDLQFDLLDLNDISSALKHHEEK
notes: also called peptide 2; source: synthetic peptide, bought: ProteoGenix SAS
B3 showed a Kd (6xHis-tagged PP1 7-330) of 7.7 nM, a koff (6xHis-tagged PP1 7-330) of 0.0026 s⁻¹ and a kon (6xHis-tagged PP1 7-330) of 357000 M⁻¹ s⁻¹.

B4: PTG peptide 81-107 (peptide, UniProt Q9UQK1 81-107, looked up)
peptide: AKKRVVFADSKGLSLTAIHVFSDLPEE
notes: also called PTG N-terminal peptide; source: synthetic peptide, bought: ProteoGenix SAS
In the case of B4, the Kd (6xHis-tagged PP1^7-330) is reported as 14 nM.

B5: PTG70-264: recombinant human PTG residues 70–264, encompassing the PP1-binding region and the CBM21 (protein)
chain: B1 chain
modifications: left off: GST, N-terminal, cleaved
For B5, the “binding to PP1 (in words)” value (PP1 7-330) was “did not bind PP1 any better”.

B6: CBM21 aa. 132–264: recombinant PTG carbohydrate-binding module 21, residues 132–264 (protein)
chain: KNLILDFPQPSTDYLSFRSHFQKNFVCLENCSLQERTVTGTVKVKNVSFEKKVQIRITFDSWKNYTDVDCVYMKNVYGGTDSDTFSFAIDLPPVIPTEQKIEFCISYHANGQVFWDNNDGQNYRIVHVQWKPD
modifications: left off: His6, N-terminal, cleaved
In the case of B6, the “binding to PP1 (in words)” value (PP1 7-330) is reported as “no interaction was detected” and the “binding to PP1 (in words)” value (PP1 7-330; listed as isolated CBM21) is reported as “undetectable binding”.

— publication PMC9582199, “Molecular architecture of the glycogen- committed PP1/PTG holoenzyme” (Nature Communications, 2022)
